Reference: PMC5363963 (Biochemistry and Biophysics Reports, 2016)
Like-named read-outs stand apart in the source and are kept apart here. Each block holds one binder with its values, some of them ahead of it. Square brackets hold non-standard residues; d marks the D form. Ends that are not written are not given here.

Legend:
[1] = molecular target: synthetic amyloid fibrils composed of recombinant Vλ6 protein Wil; assay: SPR
[2] = molecular target: synthetic amyloid fibrils composed of recombinant Vλ6 protein Wil; assay: SPR; remark: listed apart in the source
[3] = molecular target: synthetic amyloid fibrils composed of recombinant Vλ6 protein Wil; assay: pull-down
[4] = molecular target: T1, synthetic amyloid fibrils composed of human islet amyloid polypeptide (human, UniProt P10997 34-70); assay: pull-down
T1 peptide (looked up): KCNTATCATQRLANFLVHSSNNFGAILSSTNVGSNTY

[5] = molecular target: synthetic amyloid fibrils composed of Aβ(1-40) peptide; assay: pull-down

B1: peptide p5(coil) (peptide)
peptide: GGGYSKGGKGGGKGGKGGGKGGKGGGKGGKG
- Kd [1]: 18 nM
- Kd [2]: 34 nM
- ka1 (two-state model, first step) [2]: 75000 M⁻¹ s⁻¹
- ka2 (two-state model, second step) [2]: 7.9e-06 s⁻¹
- kd1 (two-state model, first step) [2]: 0.001 s⁻¹
- kd2 (two-state model, second step) [2]: 1.5e-05 s⁻¹

B2: peptide p5(Pro3) (peptide)
peptide: GGGYSKAQKAPAKQAKQPQKAQKAPAKQAKQ
- Kd [1]: 25 nM
- Kd [2]: 71 nM
- ka1 (two-state model, first step) [2]: 120000 M⁻¹ s⁻¹
- ka2 (two-state model, second step) [2]: 0.0122 s⁻¹
- kd1 (two-state model, first step) [2]: 0.045 s⁻¹
- kd2 (two-state model, second step) [2]: 0.0024 s⁻¹

B3: peptide p5 (peptide)
peptide: GGGYSKAQKAQAKQAKQAQKAQKAQAKQAKQ
- Kd [1]: 3.7 nM
- Kd [2]: 15 nM
- ka1 (two-state model, first step) [2]: 480000 M⁻¹ s⁻¹
- ka2 (two-state model, second step) [2]: 0.0315 s⁻¹
- kd1 (two-state model, first step) [2]: 0.203 s⁻¹
- kd2 (two-state model, second step) [2]: 0.0011 s⁻¹
- percent inhibition of the binding of m6 (125I-p5) by a 1000-fold molar excess [3]: 95%
- percent inhibition of the binding of m7 (125I-p5(D)) by a 1000-fold molar excess [3]: 80%

B6: 125I-labeled peptide p5(sheet) (peptide)
peptide: VYKVKTKVKTKVKTKVKT
modifications: also: radioiodinated with iodine-125, site not given here
- ratio of 1 M/0.15 M pulldown data (bound peptide in 1 M NaCl over that in PBS) [4]: 0.2
- ratio of 1 M/0.15 M pulldown data (bound peptide in 1 M NaCl over that in PBS) [5]: 0.21
- ratio of 1 M/0.15 M pulldown data (bound peptide in 1 M NaCl over that in PBS) [3]: 0.35

B7: 125I-labeled peptide p5(coil) (peptide)
peptide: GGGYSKGGKGGGKGGKGGGKGGKGGGKGGKG
modifications: also: radioiodinated with iodine-125, site not given here
- ratio of 1 M/0.15 M pulldown data (bound peptide in 1 M NaCl over that in PBS) [4]: 0.12
- ratio of 1 M/0.15 M pulldown data (bound peptide in 1 M NaCl over that in PBS) [5]: 0.07
- ratio of 1 M/0.15 M pulldown data (bound peptide in 1 M NaCl over that in PBS) [3]: 0.02

Now from value to binder:

- Kd [1]: 5.4 nM
- Kd [2]: 22 nM
- ka1 (two-state model, first step) [2]: 550000 M⁻¹ s⁻¹
- ka2 (two-state model, second step) [2]: 0.0074 s⁻¹
- kd1 (two-state model, first step) [2]: 0.052 s⁻¹
- kd2 (two-state model, second step) [2]: 0.0017 s⁻¹
B4: peptide p5(D) (peptide)
peptide: GGG[dY][dS][dK][dA][dQ][dK][dA][dQ][dA][dK][dQ][dA][dK][dQ][dA][dQ][dK][dA][dQ][dK][dA][dQ][dA][dK][dQ][dA][dK][dQ]

- Kd [1]: 10 nM
- Kd [2]: 25 nM
- ka1 (two-state model, first step) [2]: 420000 M⁻¹ s⁻¹
- ka2 (two-state model, second step) [2]: 0.007 s⁻¹
- kd1 (two-state model, first step) [2]: 0.026 s⁻¹
- kd2 (two-state model, second step) [2]: 0.0028 s⁻¹
B5: peptide p5(sheet) (peptide)
peptide: VYKVKTKVKTKVKTKVKT

- ratio of 1 M/0.15 M pulldown data (bound peptide in 1 M NaCl over that in PBS) [4]: 0.07
- ratio of 1 M/0.15 M pulldown data (bound peptide in 1 M NaCl over that in PBS) [5]: 0.01
- ratio of 1 M/0.15 M pulldown data (bound peptide in 1 M NaCl over that in PBS) [3]: 0.01
B8: 125I-labeled peptide p5(Pro3) (peptide)
peptide: GGGYSKAQKAPAKQAKQPQKAQKAPAKQAKQ
modifications: also: radioiodinated with iodine-125, site not given here
